The numbers were not newly measured in PMC5053023, which cites them from elsewhere.

What is called pKd is −log10 of the Kd, conventionally taken in molar units.

pKd: −log10 of the molar value.

This series has as its target SRSF1 RS domain (Homo sapiens) (UniProt Q07955).
Sequence of UniProt Q07955 (Q07955 198-248): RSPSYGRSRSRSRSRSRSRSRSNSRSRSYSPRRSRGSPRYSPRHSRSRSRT

For SRPK1 (from UniProt Q96SB4), the pKd is 7.00.
